# Assay: yeast display, Sf9 membrane polyspecificity reagent, FACS + sequencing; frameworks hold sequencing errors
# Outline: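 Polyreactivity labels are assigned by the sorting gate from which each nanobody was recovered. The gates were low and high (top ~1%), set on anti-HA fluorescence for expression and streptavidin fluorescence for reagent binding. Before sorting, galactose-induced (36–48 hours) yeast display cells were stained for 1 hour at 4 °C with 10% biotinylated, detergent-solubilized Sf9 membrane reagent.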
row,Sequence,polyreactivity (PSR sort gate)
1,QVQLVESGGGLVQAGGSLRLSCAASGITSQTYAMGWYRQAPGKERELVAGISASGGRTFYADSVKGRFTFSRDHAKNTVYLQMNSLKPEDTAVYYCNKLSSDSYNYWGQGTQVTVSS,high polyreactivity
2,QVQLVESGGGLVQAGGSLRLSCAASGITSSYAMGWYRQAPGKERALVAAISRGGSTYYADSVKGRFTISRDNAKNTVSLQMNSLKPEDTAVYYCNKRRYPYGWGQGTQVTVSS,high polyreactivity
3,QVQLVESGGGLVQAGGSLRLSCAASGITSWYYAMGWYRQAPGKERELVAAITSDGRTNYADSVMGRFTISRDNAKNTVYLQMNSLKPEDTAVYYCAVARYPYRYDYWGQGTQVTVSS,high polyreactivity
4,QVQLVESGGGLVQAGGSLRLSCAASGITSWYYAMGWYRQAPGKERELVAAITSDGSTYYADSVKGRFTISRDNAKNTVYLQMNSLKPEDTAVYYCAAERDYWIPDSYLVGMDYWGQGTQVTVSS,low polyreactivity
5,QVQLVESGGGLVQAGGSLRLSCAASGITVDSNAMGWYRQAPGKDRELVAAISSTGSTDYADSVKGRFTISRDNAKNTVYLQMNSLKPEDTAVYYCAADSRYYYYGYKISGDYDSWGQGTQVTVSS,low polyreactivity
6,QVQLVESGGGLVQAGGSLRLSCAASGITYGRYTMGWYRQAPGKERELVAAITNGDITDYADSVKGRFTISRDNAKNTVYLQMNSLKPEDTAVYYCAALLLYQNDHWGQGTQVTVSS,high polyreactivity
7,QVQLVESGGGLVQAGGSLRLSCAASGITYGTYAMGWYRQAPGKERELVARITGSGGRTYYADSVKGRFTISRDNAKNTVYLQMISLKPEDTAVYYCAAETWRRYLFGYWGQGTQVTVSS,high polyreactivity
8,QVQLVESGGGLVQAGGSLRLSCAASGITYGYYAMGWYRQAPGKERELVATITDGGGTKYADSVKGRFTISRDNAKNTVYLQMNSLKPEDTAVYYCAAGLRHVYATEYDYWGQGTQVTVSS,low polyreactivity
9,QVQLVESGGGLVQAGGSLRLSCAASGIYYNAMGWYRQAPGKERELVAAITTGDRTNYADSVKGRFTISRDNAKNTVYLQMNCLKPEDTAVYYCNAVVERLSSTARDFAYDYWGQGTQVTVSS,low polyreactivity
10,QVQLVESGGGLVQAGGSLRLSCAASGKIFSYNAMGWYRQAPGKERELVAAISRSGGSTYYADSVKGRFTISRDNAKNTVYLQMNSLKPEDTAVYYCAADWRGRKYDYWGQGTQVTVSS,high polyreactivity
11,QVQLVESGGGLVQAGGSLRLSCAASGLIFADYVMGWYRQAPGKERELVATINQGGGSTYYADSVKGRFTISRDNAKNTVYLQMNSLIPEDTAVYYCAATWALLYAIFESYDYWGQGTQVTVSS,low polyreactivity
12,QVQLVESGGGLVQAGGSLRLSCAASGLIFAKYAMGGYRQAPGKERELVAAISYSGGSTFYADSVKGRFTISRDNAKNTVYLQMNSLKPEDTAVYYCAARDSRVGYYWFVRKEYYYWGQGTQVTVSS,high polyreactivity
13,QVQLVESGGGLVQAGGSLRLSCAASGLIFANNAMGWYRQAPGKERELVAVISRGGRTYYADSVKGRFTISRDNAKNTVYLQMNSLKPEDTAVYYCAKPVLVGLGSRYDYWGQGTQVTVSS,high polyreactivity
14,QVQLVESGGGLVQAGGSLRLSCAASGLIFARYVMGWSRQAPGKERELVADIDKGGGSTYYADSVKGRFTISRDNAKNTVYLQMNSLKPEDTAVYYCNADFDGWWWDDYWGQGTQVTVSS,high polyreactivity
15,QVQLVESGGGLVQAGGSLRLSCAASGLIFASYAMGWYRQAPGKERELVAAISWSGGSTYYADSVKGRFTISRDNAKNTVYLQMNSLKPEDTAVYYCAAKRYAYGSLDYWGQGTQVTVSS,high polyreactivity
16,QVQLVESGGGLVQAGGSLRLSCAASGLIFATNAMGWYRQAPGKERELVATITRSAGRTYYADSVKGRFTISRDNAKNPVYLQMNSLKPEDTAVYYCAASYWDTEPGYREYDYWGQGTQVTVSS,low polyreactivity
17,QVQLVESGGGLVQAGGSLRLSCAASGLIFATYAMGWYRQAPGKERELVAAISIRGGITYYADSVKGRFTISRDNAKNTVYLQMNSLKPEDTAVYYCAARYSRAGISHRMDYWGQGTQVTVSS,high polyreactivity
18,QVQLVESGGGLVQAGGSLRLSCAASGLIFAVYTMGWYRQAPGKERELVAAITRRSTRTYYADSVKGRFTISRDNAKNTVYLQMNSLKPEDTAVYYCAADRGSSGAAFEYWGQGTQVTVSS,low polyreactivity
19,QVQLVESGGGLVQAGGSLRLSCAASGLIFDKYAMGWYRQAPGKERELVAAITRSSGTTYYADSVKGSFTISRDNAKNTVYLQMNSLKPEDTAVYYCATDVDKSLYDYWGQGTQVTVSS,low polyreactivity
20,QVQLVESGGGLVQAGGSLRLSCAASGLIFDSYDMGWYRQAPGKERELVAAIRRNGGSTYYADSVKGRFTISRDNAKNTVYLQMNSLKPEDTAVYYCAVDNSGYSGVYWVKMDYWGQGTQVTVSS,low polyreactivity
21,QVQLVESGGGLVQAGGSLRLSCAASGLIFESNAMGWYRQAPGKERELVAAITTNGGSTYYADSVKGRFTISRDNAKNTVYFQMNSLKPEVTAVYYCAALGLHQVIEYDYWGQGTQVTVSS,low polyreactivity
22,QVQLVESGGGLVQAGGSLRLSCAASGLIFESYAMGWYRQAPRKERELFAAITRSGARTYYADSVKGRFSISRDNAKNTVYLQMNILKPEDTAVYYCAAAPWYFFDQYFNGISFGYYYWGQGTQLTVSS,high polyreactivity

row,Sequence,polyreactivity (PSR sort gate)
1,QVQLVESGGGLVQAGGSLRLSCAASGLIFEYYAMGWYRQAPGKERELVAVINWSGASTYYADSVKGRFTITRDYAKNTVYLQMNSLKPEDTAVYYCAAGVLITGLRFDYWGQGTQVTVSS,low polyreactivity
2,QVQLVESGGGLVQAGGSLRLSCAASGLIFFTYAMGWYRQAPGKERELVATISRGGRTKYADSVKGRFTISRDNAKNTVYLQMNSLKPEDTAVSYCAAYLSRSYYAYDYWGQGTQVTVSS,high polyreactivity
3,QVQLVESGGGLVQAGGSLRLSCAASGLIFGDYAMGWYRPAPGKERELVAAITGSVTRTYYADSVKGRFTISRDNAKNTVYLQMNSLKPEDTAVYYCATRVHYIGFYDYDYWGQGTQVTVSS,low polyreactivity
4,QVQLVESGGGLVQAGGSLRLSCAASGLIFGGYAMGWYRQAPGKERELVAAIYWDDGDTYYADSVKGRFTISRDNAKNTVYLQMNSLKTEDTAVYYCNAAGALIFGEGYYVEYDYDYWGQGTQVTVSS,low polyreactivity
5,QVQLVESGGGLVQAGGSLRLSCAASGLIFGGYAMGWYRQAPGKERELVATITSGGSTNYADSVKGRFTISRDNAKNTVYLQMNSLKPEDTAVYYCAAAERQGFPSVYPTYQWDYDYWGQGTQVTVSS,low polyreactivity
6,QVQLVESGGGLVQAGGSLRLSCAASGLIFGNNAMGWYRQAPGKERELVAGIDWSGGSTYYADSVKGRFTISRDNAKNTVDLQMNSLKPEDTAVYYCNAALYVSGHYPNDYWGQGTQVTVSS,low polyreactivity
7,QVQLVESGGGLVQAGGSLRLSCAASGLIFGRNAMGWYRQAPGKERELVAAISYRGGSTYYADSVKGRFTISRDNAKNTVYLQMNSLKPEDTAVYYCNRVWYAWGTGYDYWGQGTQVTVSS,high polyreactivity
8,QVQLVESGGGLVQAGGSLRLSCAASGLIFGRYAMGWYRQAPGKERELVAAITCGTNTNYADSVKGRFTISRDNAKNTVYLQMNSLKPEDTAVYYCGKASGRCSLARGATYSVDYWGQGTQVTVSS,high polyreactivity
9,QVQLVESGGGLVQAGGSLRLSCAASGLIFGSYAMGWSRQAPGKERELVAAISRSGGSTYYADSVKGRFTISRDNAKNTVYLQMNSLKPEDTAVYYCAARGYPLGIGRIKRNYWGQGTQVTVAS,high polyreactivity
10,QVQLVESGGGLVQAGGSLRLSCAASGLIFGSYAMGWYRQAPGKEMELVAAISWSGGSTNYADSVKGRFTISRDNSKNTVDLQMNSLKPEDTAVYYCAARGYPLGIGRIKRNYWGQGTQVTVSS,high polyreactivity
11,QVQLVESGGGLVQAGGSLRLSCAASGLIFGSYVMGWYSQAPGKERELVAAISTSGGRTYYADSVKGRFTISRDNATNTVYLQMNSLKPEDTAVYFCAASRWHGYNYWGQGTQVTVSS,high polyreactivity
12,QVQLVESGGGLVQAGGSLRLSCAASGLIFGVNAMGWYRQAPGKERELVAAISRDSDTNYADSVKGRFTISRDNAKNTDYLQMNSLKPEDTAVYYCNAYSEWPVPSPPRSQSLDYWGQGTQVTVSS,low polyreactivity
13,QVQLVESGGGLVQAGGSLRLSCAASGLIFGWYAMGWYRQAPGKERELVAGISGSGGITYYADSVKGRFTISRDNAKNTVYLQMNSLKPEDTAVYYCAARPGYVHIDFDYWGQGTQVTVSS,low polyreactivity
14,QVQLVESGGGLVQAGGSLRLSCAASGLIFGYNAMGWYRQAPGKEREFVAGISVIDGRTYYADSVKGRFTISRDNAKNTVYLQMNSLIPEDTAVYYCAADRWYKYYFLTYGYWGQGTQVTVSS,low polyreactivity
15,QVQLVESGGGLVQAGGSLRLSCAASGLIFGYNAMGWYRQAPGKEREFVAGISVIDGRTYYADSVKGRFTISRDNAKNTVYLQMNSLKPEDTAVYYCAADRWYKYYFLTYGYWGQGTQVTVSS,low polyreactivity
16,QVQLVESGGGLVQAGGSLRLSCAASGLIFGYNAMGWYRQAPGKERELVAAISSSGGSTSYADSVKGRFTISRDNAKNTVYLQMNSLKPEDTAVYYCAAKPGRYADYDYNSWGQGTQVTVSS,low polyreactivity
17,QVQLVESGGGLVQAGGSLRLSCAASGLIFGYNAMGWYRQAPGKERELVAAISWSGGRTYYADSVKGRFTISRDNAKNTVYLQMNSLKPEDTAVYYCAAVVRHSYFRDDHWGQGTQVTVSS,high polyreactivity
18,QVQLVESGGGLVQAGGSLRLSCAASGLIFGYYAMGWYRQAPGKERELVAAISSSGTRTYYADSVKGRFTISRDNAMNTVYLQMNSLKPEDTAVYYCNADSYGSRYEYWGQGTQVTVSS,high polyreactivity
19,QVQLVESGGGLVQAGGSLRLSCAASGLIFHYYAMGWYRQAPGKERELVAAISSGGSTNYADSVKGRFTISRDNAKNTVYLQMNSLKPLDTAVYYCAARSGARRGNVYVYYEYYYWGQGTQVTVSS,low polyreactivity
20,QVQLVESGGGLVQAGGSLRLSCAASGLIFITYAMGWYIQAPGKERELVATITLRGGSTYYADSVKGRFTISRDNAKNTVYLQMNSLKPEDTAVYYCAADVGYWGRSRGYPSDDYDYWGQGTQVTVSS,low polyreactivity
21,QVQLVESGGGLVQAGGSLRLSCAASGLIFKFYAMGWYRQAPGKERELVARISSCGGSTYYADSVKGRFTMSRDNAKNTVYLQMNSLKPEDTAVYYCAAGDYYGDRYARSSIFSYYYWGQGTQVTVSS,high polyreactivity
